For two substances, stoichiometry N (proteins per capsid) results are on record in PMC3882142.

The target of the test is bacteriophage P22 coat protein (CP), assembled as the P22 VLP capsid (bacteriophage P22) (UniProt P26747). Kind of test: SEC-MALS. In general terms: SEC sorts molecules by how far they enter the pores of the column.
UniProt P26747, sequence (P26747 whole entry): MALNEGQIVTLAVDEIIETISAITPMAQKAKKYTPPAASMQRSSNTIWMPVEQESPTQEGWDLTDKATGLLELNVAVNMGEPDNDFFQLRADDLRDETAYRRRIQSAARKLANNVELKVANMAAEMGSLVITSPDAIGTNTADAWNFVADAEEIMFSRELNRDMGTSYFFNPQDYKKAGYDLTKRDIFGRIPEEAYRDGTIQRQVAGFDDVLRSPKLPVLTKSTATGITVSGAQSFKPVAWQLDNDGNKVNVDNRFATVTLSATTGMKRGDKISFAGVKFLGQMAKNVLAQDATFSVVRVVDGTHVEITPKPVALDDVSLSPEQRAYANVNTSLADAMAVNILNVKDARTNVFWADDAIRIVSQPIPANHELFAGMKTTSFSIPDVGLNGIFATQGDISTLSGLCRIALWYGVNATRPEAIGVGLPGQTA

“GalA-SP fusion protein (alpha-galactosidase of Pyrococcus furiosus fused to the truncated scaffold protein of P22)”: the stoichiometry N (proteins per capsid) stood at 183. As to “HA_(head)-SP fusion protein (hemagglutinin head of influenza fused to the truncated scaffold protein of P22)”, the stoichiometry N (proteins per capsid) was 286.
